Earlier results on one substance are cited in paper PMC10770464.

Series [1] addresses Plasminogen (Homo sapiens) (UniProt P00747).
In series [2] the target is High mobility group box-1 (Homo sapiens) (UniProt P09429).
Series [3] concerns the target Plasminogen kringle 4 (Homo sapiens) (UniProt P00747).
In series [4] the target is Apolipoprotein A (Homo sapiens) (UniProt P08519).
The target of series [5] is Hepatocyte growth factor (Homo sapiens) (UniProt P14210). The experiment in a line: ELISA. Background: ELISA stands for enzyme-linked immunosorbent assay.
Series [6] addresses Tissue plasminogen activator (Homo sapiens) (UniProt P00750). Nature of the series: ELISA.
UniProt P00750, sequence (P00750 36-562): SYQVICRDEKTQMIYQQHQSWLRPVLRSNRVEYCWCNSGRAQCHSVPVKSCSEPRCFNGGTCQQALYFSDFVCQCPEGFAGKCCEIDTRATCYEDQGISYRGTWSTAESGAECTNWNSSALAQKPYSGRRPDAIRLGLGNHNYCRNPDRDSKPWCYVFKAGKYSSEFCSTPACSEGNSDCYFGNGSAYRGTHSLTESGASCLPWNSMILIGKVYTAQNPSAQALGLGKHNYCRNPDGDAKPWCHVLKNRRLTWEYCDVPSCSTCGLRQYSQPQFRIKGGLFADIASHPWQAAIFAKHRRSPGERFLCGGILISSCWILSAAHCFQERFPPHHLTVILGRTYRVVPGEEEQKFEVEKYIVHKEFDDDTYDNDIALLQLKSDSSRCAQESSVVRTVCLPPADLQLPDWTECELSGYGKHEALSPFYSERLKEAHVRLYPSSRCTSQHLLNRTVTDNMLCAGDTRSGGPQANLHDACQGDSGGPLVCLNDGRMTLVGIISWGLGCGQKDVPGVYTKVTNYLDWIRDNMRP

UniProt P08519, sequence (P08519 20-2040): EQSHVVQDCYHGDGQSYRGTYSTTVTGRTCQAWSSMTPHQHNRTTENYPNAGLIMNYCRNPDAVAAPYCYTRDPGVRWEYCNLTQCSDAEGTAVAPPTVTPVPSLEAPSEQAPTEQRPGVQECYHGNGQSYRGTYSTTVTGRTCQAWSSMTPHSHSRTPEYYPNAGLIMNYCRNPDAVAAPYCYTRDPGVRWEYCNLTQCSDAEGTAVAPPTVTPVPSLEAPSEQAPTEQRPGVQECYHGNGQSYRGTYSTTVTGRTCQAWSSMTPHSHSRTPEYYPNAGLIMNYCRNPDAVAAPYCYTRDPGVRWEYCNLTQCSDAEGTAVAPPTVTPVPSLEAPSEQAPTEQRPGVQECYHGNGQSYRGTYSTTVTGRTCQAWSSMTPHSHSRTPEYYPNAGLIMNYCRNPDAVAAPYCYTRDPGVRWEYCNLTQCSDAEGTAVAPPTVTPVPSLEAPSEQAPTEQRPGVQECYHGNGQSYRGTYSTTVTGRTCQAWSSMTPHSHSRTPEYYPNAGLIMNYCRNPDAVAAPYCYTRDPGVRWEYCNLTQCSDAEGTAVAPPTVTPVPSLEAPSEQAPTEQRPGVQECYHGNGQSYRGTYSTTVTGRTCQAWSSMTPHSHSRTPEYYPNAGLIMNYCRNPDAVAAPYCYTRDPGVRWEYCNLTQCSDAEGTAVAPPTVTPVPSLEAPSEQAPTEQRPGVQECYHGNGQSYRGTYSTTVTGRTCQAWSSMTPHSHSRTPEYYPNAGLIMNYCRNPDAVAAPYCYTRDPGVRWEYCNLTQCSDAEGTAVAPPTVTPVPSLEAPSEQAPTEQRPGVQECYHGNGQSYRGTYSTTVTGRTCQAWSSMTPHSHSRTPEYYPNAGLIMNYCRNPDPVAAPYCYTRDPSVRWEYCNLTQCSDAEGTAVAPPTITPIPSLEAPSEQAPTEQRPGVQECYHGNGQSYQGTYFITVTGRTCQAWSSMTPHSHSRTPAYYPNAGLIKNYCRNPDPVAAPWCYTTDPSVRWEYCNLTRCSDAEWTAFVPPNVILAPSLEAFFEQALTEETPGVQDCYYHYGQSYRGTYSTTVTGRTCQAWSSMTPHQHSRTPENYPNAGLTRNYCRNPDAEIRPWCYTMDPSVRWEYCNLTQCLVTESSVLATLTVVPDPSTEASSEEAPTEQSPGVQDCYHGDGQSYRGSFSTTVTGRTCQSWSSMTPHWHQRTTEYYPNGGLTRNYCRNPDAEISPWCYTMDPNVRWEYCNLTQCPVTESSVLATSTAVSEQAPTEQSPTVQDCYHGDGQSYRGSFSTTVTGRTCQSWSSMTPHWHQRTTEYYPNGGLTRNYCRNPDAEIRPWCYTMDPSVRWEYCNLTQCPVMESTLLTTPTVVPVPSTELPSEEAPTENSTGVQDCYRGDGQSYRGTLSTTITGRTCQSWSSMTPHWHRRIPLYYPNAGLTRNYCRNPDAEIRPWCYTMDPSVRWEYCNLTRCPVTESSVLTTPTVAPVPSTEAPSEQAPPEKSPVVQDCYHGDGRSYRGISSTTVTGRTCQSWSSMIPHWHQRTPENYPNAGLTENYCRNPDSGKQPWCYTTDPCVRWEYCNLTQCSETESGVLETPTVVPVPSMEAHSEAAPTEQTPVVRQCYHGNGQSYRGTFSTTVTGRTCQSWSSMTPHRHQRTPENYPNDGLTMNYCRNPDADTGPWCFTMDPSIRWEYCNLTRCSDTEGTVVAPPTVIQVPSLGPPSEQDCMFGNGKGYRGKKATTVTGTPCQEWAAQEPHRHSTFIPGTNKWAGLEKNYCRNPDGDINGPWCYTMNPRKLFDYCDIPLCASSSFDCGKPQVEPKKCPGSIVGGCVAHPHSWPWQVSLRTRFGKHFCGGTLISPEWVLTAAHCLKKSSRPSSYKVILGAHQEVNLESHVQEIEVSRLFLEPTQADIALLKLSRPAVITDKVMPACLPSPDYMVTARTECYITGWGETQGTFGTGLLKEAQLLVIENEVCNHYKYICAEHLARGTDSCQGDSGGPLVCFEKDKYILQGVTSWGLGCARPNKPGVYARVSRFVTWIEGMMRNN
UniProt P14210, sequence (P14210 495-728): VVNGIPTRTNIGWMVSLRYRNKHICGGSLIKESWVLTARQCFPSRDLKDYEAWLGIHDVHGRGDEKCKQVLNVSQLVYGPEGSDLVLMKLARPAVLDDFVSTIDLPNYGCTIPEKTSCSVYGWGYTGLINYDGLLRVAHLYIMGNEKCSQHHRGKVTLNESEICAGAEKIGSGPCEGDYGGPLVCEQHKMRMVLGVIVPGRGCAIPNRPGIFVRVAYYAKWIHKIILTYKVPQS
UniProt P09429, sequence (P09429 whole entry): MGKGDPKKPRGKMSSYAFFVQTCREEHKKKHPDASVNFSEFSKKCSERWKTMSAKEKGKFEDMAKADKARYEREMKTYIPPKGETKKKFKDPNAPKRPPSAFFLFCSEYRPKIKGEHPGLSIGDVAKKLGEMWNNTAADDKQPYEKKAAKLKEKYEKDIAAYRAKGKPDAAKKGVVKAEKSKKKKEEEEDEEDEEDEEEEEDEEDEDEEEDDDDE

The Kd is the constant that tells how readily two partners part at equilibrium. Turning to Tetranectin (from UniProt P05452), the Kd in series [1] is 400 nM; in series [2], 2.05 nM; in series [3], 25000 nM; in series [4] it was 13 nM; in series [5], 490 nM; in series [6], 290 nM.
